From article PMC5287571 (Biochemical pharmacology, 2016) come the findings set out here.

The target in this assay is HA-Ubiquitin-Vinyl Sulfone (UniProt P0CG48 1-76, vinyl sulfone (active site probe of cysteine DUBs)). The assay can be described thus: active-site-directed labelling with HA-UbVS.

B1: UCHL5 (enzyme)
chain: MTGNAGEWCLMESDPGVFTELIKGFGCRGAQVEEIWSLEPENFEKLKPVHGLIFLFKWQPGEEPAGSVVQDSRLDTIFFAKQVINNACATQAIVSVLLNCTHQDVHLGETLSEFKEFSQSFDAAMKGLALSNSDVIRQVHNSFARQQMFEFDTKTSAKEEDAFHFVSYVPVNGRLYELDGLREGPIDLGACNQDDWISAVRPVIEKRIQKYSEGEIRFNLMAIVSDRKMIYEQKIAELQRQLAEEEPMDTDQGNSMLSAIQSEVAKNQMLIEEEVQKLKRYKIENIRRKHNYLPFIMELLKTLAEHQQLIPLVEKAKEKQNAKKAQETK
B1: the binding result is reported as “binds”.
